# Results as given in US11306156.
# Values joined by “and” are separate entries in the source; they are usually repeats but may differ in a detail not shown here. Identical values can stand only once.
# What was measured:
# [1] = molecular target: D3H44 light chain Q124E_Q160E_T180E (Kabat) with N-terminal HA or FLAG tag; assay: LCCA, SPR read-out of light-chain tags; light-chain DNA 1:3 normalized to 1:1; competing light chain m20
# [2] = molecular target: D3H44 light chain Q124K_T178R (Kabat) with N-terminal HA or FLAG tag; assay: LCCA, SPR read-out of light-chain tags; light-chain DNA 1:3 normalized to 1:1; competing light chain m17
# [3] = molecular target: D3H44 light chain Q124R_Q160K_T178R (Kabat) with N-terminal HA or FLAG tag; assay: as above
# [4] = molecular target: D3H44 light chain T178R (Kabat) with N-terminal HA or FLAG tag; assay: as above
# [5] = molecular target: D3H44 light chain Q124R_T178R (Kabat) with N-terminal HA or FLAG tag; assay: as above
# [6] = molecular target: D3H44 light chain Q124E_Q160E_T180E (Kabat) with N-terminal HA or FLAG tag; assay: LCCA, SPR read-out of light-chain tags; light-chain DNA 1:3 normalized to 1:1; competing light chain m21
# [7] = molecular target: D3H44 light chain Q124E_Q160E_T180E (Kabat) with N-terminal HA or FLAG tag; assay: LCCA, SPR read-out of light-chain tags; light-chain DNA 1:3 normalized to 1:1; competing light chain m18
# [8] = molecular target: D3H44 light chain Q124R_T178R (Kabat) with N-terminal HA or FLAG tag; assay: LCCA, SPR read-out of light-chain tags; light-chain DNA 1:9 normalized to 1:1; competing light chain m17
# [9] = molecular target: D3H44 light chain Q124E_Q160E_T180E (Kabat) with N-terminal HA or FLAG tag; assay: LCCA, SPR read-out of light-chain tags; light-chain DNA 1:9 normalized to 1:1; competing light chain m21
# [10] = molecular target: D3H44 light chain Q124E_Q160E_T180E (Kabat) with N-terminal HA or FLAG tag; assay: LCCA, SPR read-out of light-chain tags; light-chain DNA 1:3 normalized to 1:1; competing light chain m16
# [11] = molecular target: D3H44 light chain Q124R_T178K (Kabat) with N-terminal HA or FLAG tag; assay: LCCA, SPR read-out of light-chain tags; light-chain DNA 1:3 normalized to 1:1; competing light chain m17
# [12] = molecular target: D3H44 light chain Q124E_T180E (Kabat) with N-terminal HA or FLAG tag; assay: LCCA, SPR read-out of light-chain tags; light-chain DNA 1:3 normalized to 1:1; competing light chain m18
# [13] = molecular target: D3H44 light chain T178R (Kabat) with N-terminal HA or FLAG tag; assay: LCCA, SPR read-out of light-chain tags; light-chain DNA 1:3 normalized to 1:1; competing light chain m19
# [14] = molecular target: D3H44 light chain Q124E_Q160E_T180E (Kabat) with N-terminal HA or FLAG tag; assay: LCCA, SPR read-out of light-chain tags; light-chain DNA 1:3 normalized to 1:1; competing light chain m26
# [15] = molecular target: D3H44 light chain Q124R_T178R (Kabat) with N-terminal HA or FLAG tag; assay: LCCA, SPR read-out of light-chain tags; light-chain DNA 1:3 normalized to 1:1; competing light chain m22
# [16] = molecular target: D3H44 light chain Q124E_S131T_T178F_T180E (Kabat) with N-terminal HA or FLAG tag; assay: LCCA, SPR read-out of light-chain tags; light-chain DNA 1:3 normalized to 1:1; competing light chain m21
# [17] = molecular target: D3H44 light chain Q124E_S176L_T180E (Kabat) with N-terminal HA or FLAG tag; assay: LCCA, SPR read-out of light-chain tags; light-chain DNA 1:3 normalized to 1:1; competing light chain m20
# [18] = molecular target: D3H44 light chain Q124E_S131T_T178Y_T180E (Kabat) with N-terminal HA or FLAG tag; assay: as above
# [19] = molecular target: D3H44 light chain Q124E_S131T_T178F_T180E (Kabat) with N-terminal HA or FLAG tag; assay: as above
# [20] = molecular target: D3H44 light chain Q124R_Q160K_T178R (Kabat) with N-terminal HA or FLAG tag; assay: LCCA, SPR read-out of light-chain tags; light-chain DNA 1:3 normalized to 1:1; competing light chain m22
# [21] = molecular target: D3H44 light chain Q124R_Q160K_T178R (Kabat) with N-terminal HA or FLAG tag; assay: LCCA, SPR read-out of light-chain tags; light-chain DNA 1:3 normalized to 1:1; competing light chain m28
# [22] = molecular target: D3H44 light chain Q124R_Q160K_T178R (Kabat) with N-terminal HA or FLAG tag; assay: LCCA, SPR read-out of light-chain tags; light-chain DNA 1:3 normalized to 1:1; competing light chain m29
# [23] = molecular target: D3H44 light chain Q124E_V133E_Q160F (Kabat) with N-terminal HA or FLAG tag; assay: LCCA, SPR read-out of light-chain tags; light-chain DNA 1:3 normalized to 1:1; competing light chain m23
# [24] = molecular target: D3H44 light chain Q124R (Kabat) with N-terminal HA or FLAG tag; assay: LCCA, SPR read-out of light-chain tags; light-chain DNA 1:3 normalized to 1:1; competing light chain m24
# [25] = molecular target: tissue factor (TF) antigen (UniProt P13726); assay: SPR; Fab captured by anti-His, TF as analyte; LCCA set 9054
# [26] = molecular target: tissue factor (TF) antigen (UniProt P13726); assay: SPR; Fab captured by anti-His, TF as analyte; LCCA set 9053
# [27] = molecular target: tissue factor (TF) antigen (UniProt P13726); assay: SPR; Fab captured by anti-His, TF as analyte; LCCA set 9058
substance,measurement,setting,value
D3H44 Fab heavy chain L143E_K145T_Q179D (Kabat) with C-terminal ABD2-His6 tag,H1L1:H1L2 normalized median ratio,[1],16%
same,H1L1:H1L2 normalized median ratio,[2],86%
same,H1L1:H1L2 normalized median scalar value ln(r1/f1),[2],1.78
same,H1L1:H1L2 normalized median ratio,[3],84%
same,H1L1:H1L2 normalized median scalar value ln(r1/f1),[3],1.68
same,H1L1:H1L2 normalized median ratio,[4],76%
same,H1L1:H1L2 normalized median scalar value ln(r1/f1),[4],1.13
same,H1L1:H1L2 normalized median ratio,[5],87%
same,H1L1:H1L2 normalized median scalar value ln(r1/f1),[5],1.9
same,H1L1:H1L2 normalized median ratio,[6],13%
same,H1L1:H1L2 normalized median ratio,[7],24%
same,H1L1:H1L2 normalized median ratio,[8],82%
same,H1L1:H1L2 normalized median scalar value ln(r1/f1),[8],1.55
same,H1L1:H1L2 normalized median ratio,[9],18%
same,H1L1:H1L2 normalized median ratio,[10],14%
D3H44 Fab heavy chain L143E_K145T_Q179E (Kabat) with C-terminal ABD2-His6 tag,H1L1:H1L2 normalized median ratio,[1],16%
same,H1L1:H1L2 normalized median ratio,[2],88%
same,H1L1:H1L2 normalized median scalar value ln(r1/f1),[2],2
same,H1L1:H1L2 normalized median ratio,[11],83%
same,H1L1:H1L2 normalized median scalar value ln(r1/f1),[11],1.62
same,H1L1:H1L2 normalized median ratio,[3],84%
same,H1L1:H1L2 normalized median scalar value ln(r1/f1),[3],1.65
same,H1L1:H1L2 normalized median ratio,[4],89%
same,H1L1:H1L2 normalized median scalar value ln(r1/f1),[4],2.14
same,H1L1:H1L2 normalized median ratio,[12],40%
same,H1L1:H1L2 normalized median ratio,[7],11%
same,H1L1:H1L2 normalized median ratio,[13],60%
same,H1L1:H1L2 normalized median scalar value ln(r1/f1),[13],0.41
same,H1L1:H1L2 normalized median ratio,[14],17%
same,H1L1:H1L2 normalized median ratio,[10],12% and 17%
D3H44 Fab heavy chain L143E_K145T_Q179E_S188L (Kabat) with C-terminal ABD2-His6 tag,H1L1:H1L2 normalized median ratio,[15],77%
same,H1L1:H1L2 normalized median scalar value ln(r1/f1),[15],1.19
same,H1L1:H1L2 normalized median ratio,[16],23%
D3H44 Fab heavy chain L143E_K145T_S188L (Kabat) with C-terminal ABD2-His6 tag,H1L1:H1L2 normalized median ratio,[17],43%
same,H1L1:H1L2 normalized median ratio,[18],26%
same,H1L1:H1L2 normalized median ratio,[19],41%
same,H1L1:H1L2 normalized median ratio,[20],59%
same,H1L1:H1L2 normalized median scalar value ln(r1/f1),[20],0.37
same,H1L1:H1L2 normalized median ratio,[21],57%
same,H1L1:H1L2 normalized median scalar value ln(r1/f1),[21],0.28
same,H1L1:H1L2 normalized median ratio,[22],74%
same,H1L1:H1L2 normalized median scalar value ln(r1/f1),[22],1.03
D3H44 Fab heavy chain L143R (Kabat) with C-terminal ABD2-His6 tag,H2L2:H2L1 normalized median ratio,[23],83%
same,H2L2:H2L1 normalized median ratio,[24],17%
"D3H44 Fab heterodimer, H A139G_Q179K_V190A / L Q124E_L135W_Q160E_T180E (H1L1 Fab of LCCA sets 9053, 9054)",Change in KD with respect to wild type (-(log(KD design) - log(KD wt))),[25],0.05
same,Kd,[25],0.14 nM
same,Change in KD with respect to wild type (-(log(KD design) - log(KD wt))),[26],0.05
same,Kd,[26],0.14 nM
"D3H44 Fab heterodimer, H A139W_L143E_K145T_Q179E / L F116A_Q124R_L135V (H1L1 Fab of LCCA set 9058)",Change in KD with respect to wild type (-(log(KD design) - log(KD wt))),[27],0.12
same,Kd,[27],0.12 nM
